Test [1] deals with T1, human IL-31 (human, UniProt Q6EBC2 24-164, limits assumed).
T1 construct: also called hIL-31; recombinant human IL-31
T1 sequence (looked up): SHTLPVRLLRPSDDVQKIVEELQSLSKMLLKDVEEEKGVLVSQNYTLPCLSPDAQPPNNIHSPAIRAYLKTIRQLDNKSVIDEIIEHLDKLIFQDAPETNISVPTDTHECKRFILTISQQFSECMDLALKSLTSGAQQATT
The test can be described thus: competitive ELISA: IL-31RA coated, biotinylated IL-31 preincubated with the antibody, bound IL-31 detected with streptavidin-HRP; blocked interaction IL-31/IL-31RA. On the technique in general: ELISA stands for enzyme-linked immunosorbent assay.

Test [2] addresses T1, human IL-31. As to the kind of experiment: cell-based or functional assay.
Test [3] addresses T1, human IL-31. As to the kind of experiment: cell-based or functional assay. This is another data set of the same source.
In test [4] the target is T1, human IL-31. The test can be described thus: cell-based or functional assay. This is another data set of the same source.
In test [5] the target is T1, human IL-31. The test can be described thus: cell-based or functional assay. This is another data set of the same source.
In test [6] the target is T1, human IL-31. The test can be described thus: cell-based or functional assay. This is another data set of the same source.
The target in test [7] is T1, human IL-31. The test can be described thus: competitive ELISA: IL-31RA coated, biotinylated IL-31 preincubated with the antibody, bound IL-31 detected with streptavidin-HRP; blocked interaction IL-31/IL-31RA. The source holds these as a separate data set.
The target of test [8] is T1, human IL-31. The test is described as above. The source holds these as a separate data set.
In test [9] the target is T1, human IL-31. As to the kind of experiment: cell-based or functional assay. This is another data set of the same source.
Test [10] has as its target T2, cynomolgus IL-31-His (cynomolgus monkey (Macaca fascicularis)).
T2 construct: extracellular domain; also called cynomolgus monkey IL-31; cyno IL-31
The test can be described thus: SPR (Biacore T200), cynomolgus IL-31-His captured via anti-His antibody, scFv as analyte. The method, then: (§1) After each analyte injection cycle the sensor chip was regenerated and new antigen was captured. The scFvs were measured using a dose response multi-cycle kinetic assay in a high-throughput mode with two concentrations (30 and 10 nM) diluted in running buffer. Obtained sensorgrams were fitted using a 1:1 binding model.
(§2) The scFvs were measured using a dose response multi-cycle kinetic assay in a high-throughput mode with two concentrations (30 and 10 nM) diluted in running buffer. Obtained sensorgrams were fitted using a 1:1 binding model.
(SPR reads the build-up and loss of mass on a sensor chip optically.)

Test [11] has as its target T1, human IL-31. As to the kind of experiment: cell-based or functional assay. This is another data set of the same source.
In test [12] the target is T2, cynomolgus IL-31-His. As to the kind of experiment: SPR (Biacore T200), cynomolgus IL-31-His captured via anti-His antibody, scFv as analyte. The method, then: as §1
This is another data set of the same source.

Test [13] addresses T1, human IL-31. The test can be described thus: cell-based or functional assay. This is another data set of the same source.
Test [14] addresses T1, human IL-31. As to the kind of experiment: competitive ELISA: IL-31RA coated, biotinylated IL-31 preincubated with scFv. From the text:
For this purpose, IL-31RA was coated on the ELISA plate.
Potency of the two humanized scFvs was further determined using a competitive ELISA.

The target in test [15] is T3, human IL-31-His (human, UniProt Q6EBC2 24-164).
T3 construct: form captured via anti-His tag antibody in the SPR of the scFvs (sections 1.8 and 2.4); also called hIL-31; not shown: His tag
T3 sequence (looked up): T1 sequence (looked up)
As to the kind of experiment: SPR (Biacore T200), human IL-31-His captured via anti-His antibody, scFv as analyte. The method, then:
as §1, §2

The target in test [16] is T3, human IL-31-His. Described as above. As to the method: as §1
This is another data set of the same source.

Residue numbers refer to the chain shown, from its start. Numbers in names are those of the source. Where two headings read alike, the source gives them in different places.

B1: BMS-981164 (antibody, V domains shown)
VH: QVQLVQSGAEVKKPGASVKVSCKASGYTLTRYWMQWVRQAPGQGLEWMGAIYPGDGDTRYSQKFQGRVTLTADKSTSTAYMELSSLRSEDTAVYYCAFPDGYYAAPYGMDYWGQGTLVTVSS
VL: DIQMTQSPSSLSASVGDRVTITCRASGNIHNYLAWYQQKPGKVPKLLIYNAKTLADGVPSRFSGSRSETQYSLTISSLQPEDVATYYCQHFWSTPWTFGQGTKVEIKR
Take B1: the “IC50 (read off the curve)” value was about 10 ng/mL in the test with human IL-31 [1]; about 10 ng/mL with human IL-31 [2]; about 8 ng/mL with human IL-31 [3]; about 10 ng/mL with human IL-31 [4]; about 10 ng/mL with human IL-31 [5]; about 7 ng/mL in the test with human IL-31 [6]. Further, the “IC50 (read off the curve)” value in the test with human IL-31 [7], with human IL-31 [8] and with human IL-31 [9] was about 10 ng/mL in each case.

B2: PRO1643 (scFv)
scFv: AFQLTQSPSSLSASVGDRVTITCQASQSIDSWLAWYQQKPGKPPKLLIYQASKLASGVPSRFSGSGSGTDYTLTISSLQPEDFATYYCQTYYGGGHIGWGFGTGTKVTVLGGGGGSGGGGSGGGGSGGGGSQSQLVESGGGLVQPGGSLRLSCAASGFSFSANYWICWVRQAPGKGLEWIVCIYIGSRADTYYAPWAKGRFTISKDNSKNTVYLQMNSLRAEDTAVYFCARFSSGIYDLDRFFLWGQGTLVTVSS
notes: scFv (VL-linker-VH), full graft of rabbit clone 50-09-D07; also called 50-09-D07-sc03; 50-09-D07-5c03
What is called Kd is the equilibrium constant for the complex coming apart. Usually koff stands for a measure of how fast the partners let go of each other. Usually kon stands for the second-order rate constant of association. Broadly, the IC50 is the point on the concentration scale where inhibition reaches its midpoint. On to B2, for which the dissociation constant Kd with cynomolgus IL-31-His [10] is 1.17 nM; with cynomolgus IL-31-His [12], 0.583 nM; with human IL-31-His [15], 1.13 nM; in the test with human IL-31-His [16], 0.505 nM. In addition, the dissociation rate constant (koff) with cynomolgus IL-31-His [10] is 0.000587 s⁻¹; with cynomolgus IL-31-His [12], 0.000444 s⁻¹; with human IL-31-His [15], 0.000653 s⁻¹; in the test with human IL-31-His [16], 0.000447 s⁻¹. Besides, the on-rate (kon) with cynomolgus IL-31-His [10] was found to be 501000 M⁻¹ s⁻¹; with cynomolgus IL-31-His [12], 761000 M⁻¹ s⁻¹; with human IL-31-His [15], 579000 M⁻¹ s⁻¹; with human IL-31-His [16], 884000 M⁻¹ s⁻¹. Besides, the “IC50 [ng/ml], neutralization of hIL-31-induced signaling in IL-31RA/OSMR dimerization assay” value was determined as 11.1 ng/mL with human IL-31 [11] and 8.08 ng/mL with human IL-31 [13]. The half-inhibitory concentration (IC50) with human IL-31 [14] is 4.58 ng/mL.

B3: PRO1900 (scFv)
scFv: B2 scFv with L142R, V226T, L250Q
notes: scFv (VL-linker-VH); variant of PRO1643 with VH L12R, V103T, L144Q (AHo numbering); also called 50-09-D07-sc04; 50-09-D07-5c04
Consider B3, for which, in the test with cynomolgus IL-31-His [10], the Kd was 1.07 nM, the koff was 0.000594 s⁻¹ and the kon was 554000 M⁻¹ s⁻¹. Further, in the test with human IL-31 [13], the “IC50 [ng/ml], neutralization of hIL-31-induced signaling in IL-31RA/OSMR dimerization assay” value is 8.21 ng/mL. In the test with human IL-31-His [15], this molecule gave a Kd of 0.907 nM, a dissociation rate constant (koff) of 0.000599 s⁻¹ and an on-rate (kon) of 661000 M⁻¹ s⁻¹.

B4: PRO1903 (scFv)
scFv: B2 scFv with D30E
notes: scFv (VL-linker-VH); variant of PRO1643 with VL D32E (AHo numbering); also called 50-09-D07-sc07; 50-09-D07-5c07
For B4, in the test with human IL-31-His [15], binding was characterised by a dissociation constant (Kd) of 1.22 nM, the dissociation rate constant (koff) amounted to 0.000638 s⁻¹ and the association rate constant (kon) was 524000 M⁻¹ s⁻¹.

B5: PRO1901 (scFv)
scFv: B2 scFv with L142S, V226T, L250Q
notes: scFv (VL-linker-VH); variant of PRO1643 with VH L12S, V103T, L144Q (AHo numbering); also called 50-09-D07-sc05
With B5, in the test with human IL-31-His [15], the affinity, expressed as Kd, was 0.956 nM; the off-rate constant (koff) worked out at 0.000565 s⁻¹; the on-rate constant (kon) stood at 591000 M⁻¹ s⁻¹.

B6: PRO1902 (scFv)
scFv: B2 scFv with Y184S
notes: scFv (VL-linker-VH); variant of PRO1643 with VH Y59S (AHo numbering); also called 50-09-D07-sc06; 50-09-D07-5c06
In the test with human IL-31-His [15], B6 displayed an equilibrium dissociation constant (Kd) of 2.89 nM, an off-rate constant (koff) of 0.00246 s⁻¹ and an association rate constant (kon) of 852000 M⁻¹ s⁻¹.
